Results on three molecules are retold here after publication doi:10.1101/2025.10.01.679806 (bioRxiv, 2025).

Where “and” joins values, the source holds several entries; their conditions need not be identical. Equal values may be shown once.

What is called Kd is the constant that tells how readily two partners part at equilibrium. Low values mean a tighter complex, high ones a looser complex. In general, stoichiometry N refers to a count of units in the complex or per binding partner.

The target of series [1] is Bpa 31-146 (Mycobacterium tuberculosis) (UniProt P9WKX3). As to the kind of experiment: NMR CPMG relaxation dispersion.
For series [2] the target is unchanged. As to the kind of experiment: NMR titration.
Series [3] concerns the molecule itself. As to the kind of experiment: NMR pulsed-field gradient diffusion.
Series [4] deals with the molecule itself. Put plainly: native MS.
Series [5] deals with the molecule itself. Put plainly: methyl-TROSY NMR.

Molecule “DNA-binding domain of human telomeric repeat-binding factor 1 (residues 378-430) (domain or fragment)” yielded an exchange rate between Bpa free and bound with hTRF1 (CPMG) in series [1] greater than 1500 s⁻¹. Besides, in series [2], the Kd is < 200 nM and 1500 nM; the stoichiometry N (hTRF1 molecules per Bpa dodecamer) was 3.

B1: wild-type (WT) Mycobacterium tuberculosis bacterial proteasome activator Bpa (Rv3780) (natural protein)
chain: MVIGLSTGSDDDDVEVIGGVDPRLIAVQENDSDESSLTDLVEQPAKVMRIGTMIKQLLEEVRAAPLDEASRNRLRDIHATSIRELEDGLAPELREELDRLTLPFNEDAVPSDAELRIAQAQLVGWLEGLFHGIQTALFAQQMAARAQLQQMRQGALPPGVGKSGQHGHGTGQYL
With B1, the “stoichiometry N” value in series [3] was 4; in series [4], 2.

B2: Bpa 31-146 (domain or fragment)
chain: DSDESSLTDLVEQPAKVMRIGTMIKQLLEEVRAAPLDEASRNRLRDIHATSIRELEDGLAPELREELDRLTLPFNEDAVPSDAELRIAQAQLVGWLEGLFHGIQTALFAQQMAARA
Turning to B2, the “stoichiometry N” value in series [5] was 12.
